Source: the supplement of paper PMC6755084

B1: F1*; the commonest letter at each place (parent)
chain: GAGACCGCAACTGAAAAGTTGTTATCACTTGTCGTAAGACACTTTGGATGGGTTGAAGTTCTGCACGTAGAAGCAAAAGGC

Variants of: B1
Test: fraction ligated after 30 min (ligated reads / total reads); higher = more ligase activity
Conditions: with F1*sub RNA substrate (template-directed ligation), 42 °C
In short: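 Ligase ribozyme variants were made from oligo-pool templates by PCR amplification, T7 transcription and gel purification. After gel separation, ligated and unligated bands were reverse transcribed with barcoded primers and sequenced on a MiSeq, with core bases filtered at quality ≥20. The fraction ligated for each variant was the number of ligated reads divided by total reads.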

Variant	fraction ligated
T45G G55A	0.045
T45C A56G	0.569
T45C A56T	0.473
T45C A56C	0.747
T45G G46A	0.032
T45G G46T	0.246
T45G G46C	0.0668
T44A G47C	0.117
T44A G47A	0.773
T44A G47T	0.55
A48C G50A	0.148
A48C G50T	0.309
A48C G50C	0.17
G47T G50T	0.108
G47T G50A	0.0507
G47T G50C	0.048
T44A A57G	0.812
T44A A57T	0.815
T44A A57C	0.796
A48C T49G	0.763
A48C T49C	0.335
A48C T49A	0.555
G46C G55T	0.674
G46C G55A	0.804

Variant	fraction ligated
G46C G55C	0.171
T43G G55C	0.247
T43G G55T	0.765
T43G G55A	0.801
T44C A48T	0.781
T44C A48G	0.821
T44C A48C	0.783
G47T A57C	0.0653
G47T A57T	0.0782
G47T A57G	0.101
T44A G50C	0.442
T44A G50T	0.758
T44A G50A	0.643
T45A T49G	0.0993
T45A T49C	0.0557
T45A T49A	0.0341
T44G G55T	0.795
T44G G55C	0.729
T44G G55A	0.842
T43G T45C	0.319
T43G T45A	0.763
T43G T45G	0.0141
G46T G47C	0.0107
G46T G47A	0.769

Variant	fraction ligated
G46T G47T	0.0382
G47A A57G	0.774
G47A A57T	0.77
G47A A57C	0.703
T44C G46A	0.778
T44C G46T	0.787
T44C G46C	0.8
T44C G55C	0.754
T44C G55T	0.779
T44C G55A	0.815
T44A G46C	0.793
T44A G46A	0.816
T44A G46T	0.81
G47C T49G	0.0669
G47C T49C	0.0543
G47C T49A	0.0759
T44C G47C	0.0629
T44C G47T	0.152
T44C G47A	0.772
T44A A48T	0.82
T44A A48C	0.758
T44A A48G	0.808
G46A G50T	0.232
G46A G50C	0.0754

Variant	fraction ligated
G46A G50A	0.0565
G46C G50A	0.0524
G46C G50T	0.165
G46C G50C	0.0426
T45C T49C	0.0485
T45C T49A	0.0409
T45C T49G	0.0625
G46T A56T	0.237
G46T A56G	0.187
G46T A56C	0.136
G47A T49C	0.773
G47A T49G	0.798
G47A T49A	0.806
T44G A48G	0.787
T44G A48T	0.782
T44G A48C	0.757
T45G G47T	0.0452
T45G G47C	0.194
T45G G47A	0.781
T44C A56T	0.78
T44C A56G	0.793
T44C A56C	0.791
G46C A56C	0.324
G46C A56G	0.315

Variant	fraction ligated
G46C A56T	0.447
T44G A57C	0.816
T44G A57G	0.791
T44G A57T	0.857
G46C A57C	0.778
G46C A57T	0.76
G46C A57G	0.712
T43G T49G	0.743
T43G T49A	0.76
T43G T49C	0.726
T43G T44A	0.808
T43G T44G	0.809
T43G T44C	0.809
G47T A56T	0.0333
G47T A56C	0.0301
G47T A56G	0.0352
T45C A57C	0.785
T45C A57G	0.812
T45C A57T	0.777
G47A G50T	0.657
G47A G50C	0.386
G47A G50A	0.381
T44A A56G	0.777
T44A A56T	0.801

Variant	fraction ligated
T44A A56C	0.797
G46C	0.804
G46T	0.791
G46A	0.812
G46T G50C	0.0286
G46T G50T	0.148
G46T G50A	0.0502
T45G T49C	0.0508
T45G T49A	0.0341
T45G T49G	0.0893
T45A G46T	0.403
T45A G46C	0.0374
T45A G46A	0.178
G46A A57T	0.803
G46A A57G	0.799
G46A A57C	0.793
T44G G46T	0.805
T44G G46C	0.806
T44G G46A	0.818
T43G	0.822
T44G A56C	0.775
T44G A56G	0.752
T44G A56T	0.809
T44C T49G	0.772

Variant	fraction ligated
T44C T49C	0.494
T44C T49A	0.737
G46T A48T	0.144
G46T A48C	0.127
G46T A48G	0.352
G46A G55T	0.783
G46A G55C	0.224
G46A G55A	0.786
T43G A56T	0.764
T43G A56C	0.713
T43G A56G	0.717
T45A G55T	0.144
T45A G55C	0.067
T45A G55A	0.274
T45A G50A	0.0303
T45A G50C	0.0158
T45A G50T	0.0542
T43G A57C	0.809
T43G A57G	0.803
T43G A57T	0.799
T44A G55C	0.795
T44A G55A	0.827
T44A G55T	0.829
